# The DeepSol protein solubility set
# Assay: soluble on expression in E. coli; label from the status in PepcDB or PDB records
row,Sequence,soluble on expression in E. coli
1,MRYLLSLSVFLIVSLNPAFAEWTGDNVEGMHSGMIINKFHSGQVDGKPYFCIEAFKPSTTITACSVKDTSIWGASYNTLYDQAMYYYTTGKRIRVYYAPDVWTNNSFVRALTANALVGFSTCISESSCFGPDRKKHKFTVH,not soluble
2,MRYPEHADPVITLTAGPVNAYPEVLRGLGRTVLYDYDPAFQLLYEKVVDKAQKAMRLSNKPVILHGEPVLGLEAAAASLISPDDVVLNLASGVYGKGFGYWAKRYSPHLLEIEVPYNEAIDPQAVADMLKAHPEITVVSVCHHDTPSGTINPIDAIGALVSAHGAYLIVDAVSSFGGMKTHPEDCKADIYVTGPNKCLGAPPGLTMMGVSERAWAKMKANPLAPRASMLSIVDWENAWSRDKPFPFTPSVSEINGLDVALDLYLNEGPEAVWARHALTAKAMRAGVTAMGLSVWAASDSIASPTTTAVRTPDGVDEKALRQAARARYGVVFSSGRGETLGKLTRIGHMGPTAQPIYAIAALTALGGAMNAAGRKLAIGKGIEAALAVIDADA,soluble
3,MSAALEKPQIIAHIQKSLNYTVFESKWIPCSAKFVCMGNFARGTGVMQIYEIQHGELQLVREIEKSKPIKCGTFGATSLQQRHLATGDFDGNLNVWNLEVPDSPVYSVKAHKEIINAIDGVGGLGIGDGAPEIVTGSRDGTVKVWDSRQKDTPVVNMEPTEGETKRDCWTVAFGHAFNDQDRCVCAGYDNGDIKLFDLRNMSLRWEKNIRNGVCSVEFDRKDINMNKLVATSLEGKFHVFDMRTQHPSKGFASVSEKAHKSTIWQVRHLPQNRDVFMTAGGAGNLHLWKYEYPAQRSKKGADDVEMGVAGSVNLLQNVTLSTQPISSLDWSPDKQGLCVCSSFDQSVRVLIVTKLNTV,soluble
4,MSAANPTRDDFASLLEESFTTGHSGEGQVVKGTITAIEKDMAIIDVGLKVEGRVPLKEFGVKGKDTTLKVGDTVEVYVERIENALGEAMLSREKARREESWVRLEEKFTKGERVEGVIFNQVKGGFTVDLDGAVAFLPRSQVDIRPIRDVSPLMHNPQPFEILKMDRRRGNIVVSRRTVLEESRAEQRSEIVQNLEEGQVVEGVVKNITDYGAFVDLGGIDGLLHVTDMAWRRVNHPTEILNIGQTVKVQIIRINQETHRISLGMKQLESDPWSEIGTKFPIGKKIKGTVTNITDYGAFVELEPGIEGLIHVSEMSWTKKNVHPGKILSTTQEVDVVVLEVDPAKRRISLGLKQTLENPWEAFARNHPVGSQVEGEVKNKTEFGLFIGLEGDVDGMVHLSDLDWTRPGEQVIEEYNRGDMVKAQVLDVDIEKERISLGIKQLARDTVGEAATSGELRKNAVVTCEVIGVKDGGLEVRLVDSGIETFIKRSDLSRDRDEQRPERFTVGQKVDARVIAFDKKTRKLQVSIKALEIAEEKEAVAQYGSTDSGASLGDILGAALKKQGNLEHHHHHH,soluble
5,MSADLKQSRLADWRQRALAFEREVGKAVIGLERPIRHILIAVFARGHVMLEGDVGVGKTTLLRAVARCLGGAYERVEGTIDLMPNDLVYHTYINELGKPQVEPGPVLKHGEELSVFFFNEVNRARPQVHSLLLRIMAEHAVSAFNREHFFPYLQVFADRNRVEKEETFEIPSAARDRFMMELHVETPADPALRRALMFDPKFHDVDRLLDTLTPGILPYREIPQIAPVIQQSVTASETLQQYALDLWEATRRPADYGVKLEGIDMDRLILAGASARGVSMMMRAARVAAWLDGRDYLVPEDIHDVFRETIGHRVFFNPVYELRRTALIDELLHAIRQKVAAPLEHHHHHH,soluble
6,MSAIENIVISMENATERRKHITKQFESKKLSFSFFNAYTYQSINQSINQSINQSINQSINQSINQSINQSNSILHNIEESRILTKGEKGCLISHFLLWNKCVNENFEYLKIFEDDVILGENAEVFLNQNEWLKTRFDFNDIFIIRLETFLQPVKLEKQTKIPPFNSRNFDILKSTHWGTAGYIISQGAAKYVIEYLKNIPSDEIVAVDELIFNKLVDVDNYIVYQLNPAICIQELQANQSKSVLTSGLEKERQKRSKIRKKKTLKQRLTRIKENIIRALNRKKWKEQQRIKEMQGKEIVRFMLEHHHHHH,not soluble
7,MSAKLISVTKPVVEGVNTAEELIAYAARVSNPENQINNKTASGLLKYCIRHKHWSIFETAFMTLELKTSRGIAAQVIRHRSFHFQEFSQRYASVMETPPPHQARFQDHKNRQNSLDTVPEDDQTWWATEQEKLYAQSMELYNKALEKGIAKECARFILPLSTPTTIYMSGTIRDWIHYIELRTSNGTQREHIDLANACKEIFIKEFPSIAKALDWVH,soluble
8,MSAKQKELERLLELKKKQEEQQVLNQKDMLERIKLENKYMEFLQMTSQQMEEELKKRGPVKEVEVKGKDIDPIIADYKKLYSKESWYKEPETKDGKTHLTFPSQEAAGTFFKDQAEKNRSFIVIDAATNKVLAYSNGDGKLYNGNGSLYQGGDFKASKEDFTSFKMPEREEPKMGMQL,not soluble
9,MSALPPVYSFPPLYTRQPNSLTRRQQISTWIDIISQYCKTKKIWYMSVDGTVINDNELDSGSTDNDDSKKISKNLFNNEDIQRSVSQVFIDEIWSQMTKEGKCLPIDQSGRRSSNTTTTRYFILWKSLDSWASLILQWFEDSGKLNQVITLYELSEGDETVNWEFHRMPESLLYYCLKPLCDRNRATMLKDENDKVIAIKVV,soluble
10,MSAQINNIRPEFDREIVDIVDYVMNYEISSKVAYDTAHYCLLDTLGCGLEALEYPACKKLLGPIVPGTVVPNGVRVPGTQFQLDPVQAAFNIGAMIRWLDFNDTWLAAEWGHPSDNLGGILATADWLSRNAVASGKAPLTMKQVLTAMIKAHEIQGCIALENSFNRVGLDHVLLVKVASTAVVAEMLGLTREEILNAVSLAWVDGQSLRTYRHAPNTGTRKSWAAGDATSRAVRLALMAKTGEMGYPSALTAPVWGFYDVSFKGESFRFQRPYGSYVMENVLFKISFPAEFHSQTAVEAAMTLYEQMQAAGKTAADIEKVTIRTHEACIRIIDKKGPLNNPADRDHCIQYMVAIPLLFGRLTAADYEDNVAQDKRIDALREKINCFEDPAFTADYHDPEKRAIANAITLEFTDGTRFEEVVVEYPIGHARRRQDGIPKLVDKFKINLARQFPTRQQQRILEVSLDRARLEQMPVNEYLDLYVI,soluble
11,MSCFRGDVDFCPECGNILPLPSRLNTITCPRCSFKISVQDFTSQVIKSSVMFNPLDQSNVAVGSAEDAELKGPVIDRKCSRCNKEGMVYHTRQMRSADEGQTVFFTCIHCRFQEKEDS,not soluble
12,MSCGYTGPINEQNKENIKRAIAMHAAARRTRMLQQLREGLQLYRLVDIMEKNKEVCRSHFVFEGGNDQVDSQYIVSHLDPKMSESGTLKHSKEMQILNNFQDFLMELEDGGPEDEEALCVSKVMQWLSGQAHVHLLLSERQAFKITVLFDHTCMERMPDHRICYPVDSAWTQTITFPTAHSTSLNQFKENMRIAVQQGAYFYRV,not soluble
13,MSDDGAFERDTTSFRHWVGDDVPPAAGRYHLYVSYACPWAHRTLLVRALLGLEDAISVSVVDPVRYDQGWTFDPEKPGCTPDHVFGGTHLRDVYTEADPEYTGRVTVPVLYDTDADTIVNNESEEIMRMLDVAFDDHAARDVDLYPEGYRDEVDRLIEDIYDPINNGVYRAGFADSQRAYDNAVDDLFEALAHYDDVLAEQRYLAGDVLTEADVAMFTTLYRFDEVYHTHFKCNRKRISDYDNLWPYLRELCQLPGVADTLYMEHVKQHYYRSHGHLNPKRLVPTGPNPAFFAPHDRDQLEHHHHHH,soluble
14,MSDFRLKVFLSVAKNLSFTKASQELFVSQPAITKHIQELETCYQVRLFDRQGNKISLTEAGKLLQEHSEKILEDYKRLEYEMHLLHNEYIGDLKLGASTTISQYVLPPLLANFIAKFPQVNLSLLNGNSREIEAALQEHRIDLGLVEGICRLPNLRYTTFLQDELVAVVHTGSKLSLPDEITPEDLSRIPLVLRERGSGTLDVFERALSEHNMKLSSLNVLLYLGSTESIKLFLEHTDCIGIVSIRSISRELLSGTFRVIEIKGMPMLREFCFAQPQGQESGLSQVLMQFAMHHNKKL,not soluble
15,MSDGKEELVNRAKLAEQAERYDDMAASMKKVTELGAELSNEERNLLSVAYKNVVGARRSSWRVISSIEQKTEGSEKKQQMAKEYREKVEKELRDICQDVLNLLDKFLIPKAGAAESKVFYLKMKGDYYRYLAEVASGDDRNSVVEKSQQSYQEAFDIAKDKMQPTHPIRLGLALNFSVFFYEILNAPDKACQLAKQAFDDAIAELDTLNEDSYKDSTLIMQLLRDNLTLWTSDAATDDTDANETEGGN,soluble
16,MSDKNIQDRAAGAIMGAFIGDALGLGPHWYYDLSELRRDYDDWITGYTDPKPDRYHAGLKAGQLSQSGFILKLMVRSLVGCGGYDTEDFCHRMDEELFPLLDGTPVNGPGGYTSQSIRETWRRRVQQMLPWGQTGGHADTTEAVERTLAIAVRYAYQPEQLAAAVSANTTLTQTDETIVSMTVAYGAVLGLLIQGHALDTGLSGKLMDLVKSGALPFHAVTGDDLQPPRPGDPDPPRAGRFASPDALLTPSYMAAAAVDPEIRIEPAWKVSIVYGMPCAIYHQLPAAYYLAARFRDDFKSAVLHAVNGGGQNQARAMLTGALAGAQTGLSGIPQYLLDGLDNSAVLGKLAVELAASVNPIMAGDPNSLEHHHHHH,not soluble
17,MSDLTKLDWNHIRAFLKTAETGSLSAAARRLDLTQPTLSRQVAALEQDLGVMLFERIGRTLVLTDAGADLLEHTRAMGAAADRVALAASGQAQSIEGRVRITASDVMSAYVLPEALRRIRAQAPRLEIEVIAANDIRDLMRREADIAIRHVRPEQPDLIARLVREATAHFYAASGYLDRRGRPVTKDDLATHDFIAFGDVTEMLGHLTPLGLPLTRANFRLGSQSGVVAWDYVRQGFGIAPMDDGVAAATPGVERVLPQMEPLLFPVWLTAHRELHTSRRIRLVFDILAEYLTG,not soluble
18,MSDPSAKPLQEHILIILDDAGRREVLLTETFYTIGRSPRADIRIKSQFVSRIHAVLVRKSSDDVQAAYRIIDGDEDGQSSVNGLMINGKKVQEHIIQTGDEIVMGPQVSVRYEYRRRDQFGTMLEHHHHHH,soluble
19,MSDRATTTASLTFESLYGTHHGWLKSWLTRKLQSAFDADDIAQDTFLRVMVSETLSTIRDPRSFLCTIAKRVMVDLFRRNALEKAYLEMLALMPEGGAPSPEERESQLETLQLLDSMLDGLNGKTREAFLLSQLDGLTYSEIAHKLGVSISSVKKYVAKAVEHCLLFRLEYGL,soluble
20,MSDRHMSSIFPECDHLKQIYDKCFTEFFQKFITPNYRHQYAVNPCERLHDVYKRCVEERLATQRPFEIDLDEIRKEYLNTDDDKLKDRQNNQKTNSENKCSSS,not soluble
21,MSDSQINSRTTIDEYLSRADWRVNANANQDYSLGGMILNAAGKVTANYWLDQVFSPAASAAHREGSIHIHDLDMLSGYCAGWSLRQLLEEGFGGVPGTISSRPPKHFSSACGQIVNFLGTLQNEWAGAQAFSSFDTYMAPFVRLDNLSYDEIVQDMQEFIFNLNVPSRWGTQTPFTNLTFDWTCPADLKDSVPFIGEEPVDFTYGELQEEMDLINRAFIQVMSAGDADGRPFTFPIPTYNITKDFDWDSPNTEALFTMTAKYGLPYFQNFINSDLDPGMIRSMCCRLQLDLRELLKRGNGLFGSAELTGSIGVVTLNCARLGYLYAGDEQALLGAVDELIELGIDTLERRRDFVATHMRQGLYPYSARWLPSLDNHFSTIGVNGCNEMIRNFTHDAYNLTDPQGHAQVARLLDHINARLVQAQERTGHLFNLEATPAEGTTYRLAKEDLKRYPDMLHAGTPEEPYYTNSSQLPVSHTPDPFEALALQEDLQSKYTGGTVLHLYMGAAMSDGKACAALVRRALTNFHLPYITITPTFSICPDHGYISGEHPECPQCGATTEMWTRVMGYFRPVQSFNTGKKGEFHERTYFAEALI,not soluble
